From the MegaScale stability set (Tsuboyama et al. 2023)

B1: HHH_rd2_0155 (parent)
chain: PPDDERKKAEKAARSGNEEKAREILERLGYSEDEARELAKRLR

Variants of: B1
Test: folding stability dG (cDNA display proteolysis); higher = more stable
Settings: PBS, room temperature

Folding stability dG [kcal/mol], by site and new letter:
K40: R 2.52; Q 1.84; T 1.63; H 2.39
R43: A 2.29; I 1.55; G 1.48; T 1.5; L 1.87; F 2.48; P 0.532; N 1.44; W 2.31; D 0.613; M 2.09; H 1.91; V 1.77; Q 1.45; E 0.924; Y 2.39; S 1.85; K 1.79
E37: S 2.05; R 2.34; T 1.95; Y 2.17; K 2.1; A 2.27; I 2.21; G 1.38; M 2.16; C 2.36; H 1.85; L 2.17; D 1.73; Q 2.1; V 2.03; P -0.452; W 2.41; F 1.98; N 1.82
A39: D -0.2; M 1.75; W 1.01; H 0.706; E 0.651; T 1.21; Y 1.66; V 2.33; S 1.02; G 0.397; F 1.52; P -0.361; L 2.36; I 2.75; N 0.26; C 2.23; Q 0.366; K 0.184; R 0.796
R36: K 1.7; F 1.56; E 1.23; M 1.57; L 1.51; A 1.56; V 1.26; I 1.57; C 0.956; T 1.31; S 1.27; G 0.823; P -0.165; Y 1.64; D 0.859; N 1.14; W 1.68; Q 1.34; H 1.17
L38: W 1.49; A 0.925; S 0.129; M 2.09; D -0.841; Y 1.67; V 1.12; E 1.46; Q 0.725; G -0.173; K 0.756; R 0.567; N -0.062; H 0.687; I 2.04; F 1.51; T 1.09
L42: V 0.97; C 1.56; H 0.87; N 0.469; I 1.57; S 0.87; P 0.434; A 1.2; E 0.286; F 2.26; T 0.69; D 0.37; K 0.832; G 0.615; Q 0.824; W 3.74; R 0.996; M 2.39; Y 2.46
A35: Y 0.905; G 0.605; T 0.991; R 0.564; F 0.989; S 1.25; H 0.728; E 0.141; I 1.42; K 0.591; W 1; N 0.635; V 0.99; P -0.246; L 1.02; M 1.02; D 0.38; Q 0.88
R41: Q 1.78; V 1.35; W 1.85; E 1.05; N 1.39; D 0.97; I 1.6; Y 1.73; S 1.43; G 0.69; C 1.92; M 1.86; L 2.04; A 1.56; T 1.37; H 1.66; F 1.91; K 1.98
E34: N 1.21; Q 1.81; P 0.438; F 1.39; R 1.4; K 1.25; V 1.39; G 0.998; L 1.35; M 1.59; I 1.44; Y 1.51; S 1.25; T 1.34; H 1.38; W 1.08
